# Assay results: PMC4658667
# How the values were obtained:
# [1] = target: CdiI^Nlact immunity protein from Neisseria lactamica ATCC 23970, His6-tagged (Neisseria lactamica ATCC 23970); assay: BLI
# [2] = target: CdiIo11^EC869 immunity protein from Escherichia coli EC869, His6-tagged (Escherichia coli EC869); assay: BLI
Substance,Kd [1],Kd [2]
"CdiA-CTo11^EC869, orphan-11 CdiA-CT toxin from Escherichia coli EC869 (domain or fragment)",82 µM,
"CdiA-CTo11^EC869/Δβ4β5, CdiA-CTo11^EC869 with the β-hairpin (Lys242–Thr252) replaced by a Gly-Ser-Gly linker (domain or fragment)",,> 300 µM
